{"source": "patent US20250084182A1", "about": "(R P SCHERER TECHNOLOGIES, published 2025)", "binders": {"B1": {"name": "MUC1 gB06 (antibody, V domains shown)", "VH": "EVQLVQSGAEVKKPGATVKISCKVSGYTFTDHTMHWIKQRPGKGLEWMGYFYPRDDSTNYNEKFKGRVTLTADKSTDTAYMELSSLRSEDTAVYYCARGLRYALDYWGQGTLVTVSS", "VL": "EIVLTQSPATLSLSPGERATLSCRASSSVSSSYLYWYQQKPGQAPRLWIYGTSNLASGVPARFSGSGSGTDYTLTISSLEPEDAAVYYCHQYAWSPPTFGQGTKLEIK", "notes": "Monoclonal antibody; also called B06 antibody; anti-MUC1 antibody B06"}, "B2": {"name": "MUC1 H02 (antibody, V domains shown)", "VH": "B1 VH", "VL": "B1 VL with Y50I, A93S", "notes": "Monoclonal antibody; It was detected with an anti-human Fc secondary, and DSF reports CH2 and Fab regions"}, "B3": {"name": "MUC1 G12 (antibody, V domains shown)", "VH": "B1 VH", "VL": "B1 VL with S30G, Y33N, G51R, T52S, S53T, N54K, A93R", "notes": "as for B2"}}, "note": "Positions count from the first letter of the chain named.", "data": [{"target": "T1, recombinant 60 mer MUC1 non-glycosylated-biotin (biotin conjugated to the N-terminus)", "T1 construct": "Not glycosylated; also called 60mer MUC1 non-glycosylated peptide", "T1 sequence (peptide, as listed by the source)": "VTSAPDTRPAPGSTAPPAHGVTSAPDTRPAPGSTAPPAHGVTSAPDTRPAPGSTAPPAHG", "assay": "ELISA, peptide coated on plate, anti-Fc HRP detection", "experimental": "(§1) MUC1 ELISA: Antigens were coated directly on a Streptavidin (Pierce, 15500) or Maxisorp (VWR, 62409-024) 96-well plate at 100ng/well in PBS. Coated plates were incubated at 4° C. overnight. The plates were blocked with casein blocking buffer (Thermo Fisher, 37528) and washed with PBS-Tween-20. Antibodies were serially diluted in PBS, added to the coated wells and incubated for 1h at room temperature with shaking. To test for stickiness, antibodies were also added to uncoated, blocked wells. Peroxidase (HRP)-conjugated anti-Fc secondary (Jackson Immunoresearch, #109-035-098) was used for detection, followed by a […] substrate (Thermo Fisher, 34028) and H2S04 quench. Absorbance was read at 450 nm on a Molecular Devices plate reader.", "values": [{"binder": "B1", "binding result": "no binding"}, {"binder": "B2", "binding result": "no binding"}, {"binder": "B3", "binding result": "no binding"}]}, {"target": "T2, recombinant 20 mer MUC1 glycosylated-biotin (Tn (GalNac) antigen or sialyl Tn (Neu5Acα2-6GalNAc) antigen modifications on some of the S/T residues; biotin conjugated to the N-terminus)", "T2 construct": "also called 20mer glycosylated MUC1 peptide", "T2 sequence (peptide, as listed by the source)": "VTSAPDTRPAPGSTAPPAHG", "assay": "ELISA, peptide coated on plate, anti-Fc HRP detection", "experimental": "as §1", "values": [{"binder": "B1", "binding result": "binds"}, {"binder": "B2", "binding result": "binds"}, {"binder": "B3", "binding result": "binds"}]}, {"target": "T3, decoy peptide (Tn (GalNac) antigen or sialyl Tn (Neu5Acα2-6GalNAc) antigen modifications on some of the S/T residues)", "T3 construct": "also called glycosylated decoy peptide", "T3 peptide": "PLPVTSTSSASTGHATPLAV", "assay": "ELISA, peptide coated on plate, anti-Fc HRP detection", "experimental": "as §1", "values": [{"binder": "B1", "binding result": "no binding"}, {"binder": "B2", "binding result": "no binding"}, {"binder": "B3", "binding result": "no binding"}]}]}
